Test results published in doi:10.1101/2022.02.13.480237 (bioRxiv, 2022).

T1: GST^4CS-RGA recombinant protein (REPRESSOR-OF-ga1-3) (Arabidopsis, UniProt Q9SLH3 1-587)
T1 sequence (looked up): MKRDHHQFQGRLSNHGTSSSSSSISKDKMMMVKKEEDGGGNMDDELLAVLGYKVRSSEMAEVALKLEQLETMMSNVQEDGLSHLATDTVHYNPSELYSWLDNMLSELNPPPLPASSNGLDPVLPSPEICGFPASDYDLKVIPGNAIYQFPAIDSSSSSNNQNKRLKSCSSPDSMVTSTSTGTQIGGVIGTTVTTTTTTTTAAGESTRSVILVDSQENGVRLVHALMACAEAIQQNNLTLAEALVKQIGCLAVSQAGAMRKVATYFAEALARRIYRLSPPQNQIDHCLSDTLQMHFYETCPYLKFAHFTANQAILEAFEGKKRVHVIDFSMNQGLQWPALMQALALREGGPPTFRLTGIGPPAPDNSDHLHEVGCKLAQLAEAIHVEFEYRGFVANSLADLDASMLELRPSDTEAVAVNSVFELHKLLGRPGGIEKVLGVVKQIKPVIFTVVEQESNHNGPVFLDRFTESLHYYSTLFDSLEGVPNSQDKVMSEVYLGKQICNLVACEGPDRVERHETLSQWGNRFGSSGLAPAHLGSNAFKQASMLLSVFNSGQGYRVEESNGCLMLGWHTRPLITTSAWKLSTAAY

T2: GST^4CS-RGA^C374S recombinant protein (Arabidopsis, UniProt Q9SLH3 1-587, C374S)
T2 sequence (looked up): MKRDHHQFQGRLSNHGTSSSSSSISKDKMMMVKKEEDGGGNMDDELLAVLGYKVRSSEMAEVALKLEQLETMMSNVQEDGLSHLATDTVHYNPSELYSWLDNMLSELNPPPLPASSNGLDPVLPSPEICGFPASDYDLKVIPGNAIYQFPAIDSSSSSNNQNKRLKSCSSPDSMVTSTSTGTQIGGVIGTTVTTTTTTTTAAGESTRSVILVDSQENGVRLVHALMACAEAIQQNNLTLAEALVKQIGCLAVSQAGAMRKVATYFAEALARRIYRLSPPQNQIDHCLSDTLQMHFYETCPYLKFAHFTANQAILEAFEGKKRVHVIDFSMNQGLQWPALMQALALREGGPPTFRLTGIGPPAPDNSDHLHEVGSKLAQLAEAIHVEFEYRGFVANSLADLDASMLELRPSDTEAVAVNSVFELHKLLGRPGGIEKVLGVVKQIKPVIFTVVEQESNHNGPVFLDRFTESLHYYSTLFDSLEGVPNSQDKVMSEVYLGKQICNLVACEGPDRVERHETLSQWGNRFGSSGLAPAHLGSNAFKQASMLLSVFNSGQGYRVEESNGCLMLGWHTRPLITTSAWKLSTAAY


What was measured:
[1] = target: T1, GST^4CS-RGA recombinant protein …; test: pull-down
[2] = target: T2, GST^4CS-RGA^C374S recombinant protein; test: pull-down

| binding result [1] | binding result [2] | Binder |
| --- | --- | --- |
| binds | – | His-GID1c recombinant protein (GA-… DWARF1c) (receptor, Arabidopsis, UniProt Q940G6 1-344, looked up) MAGSEEVNLIESKTVVPLNTWVLISNFKLAYNLLRRPDGTFNRHLAEFLDRKVPANANPVNGVFSFDVIIDRQTNLLSRVYRPADAGTSPSITDLQNPVDGEIVPVIVFFHGGSFAHSSANSAIYDTLCRRLVGLCGAVVVSVNYRRAPENRYPCAYDDGWAVLKWVNSSSWLRSKKDSKVRIFLAGDSSGGNIVHNVAVRAVESRIDVLGNILLNPMFGGTERTESEKRLDGKYFVTVRDRDWYWRAFLPEGEDREHPACSPFGPRSKSLEGLSFPKSLVVVAGLDLIQDWQLKYAEGLKKAGQEVKLLYLEQATIGFYLLPNNNHFHTVMDEIAAFVNAECQ |
| – | binds | His-SLY1 recombinant protein (F-box protein SLEEPY1) (natural protein, Arabidopsis, UniProt Q9STX3 1-151, looked up) MKRSTTDSDLAGDAHNETNKKMKSTEEEEIGFSNLDENLVYEVLKHVDAKTLAMSSCVSKIWHKTAQDERLWELICTRHWTNIGCGQNQLRSVVLALGGFRRLHSLYLWPLSKPNPRARFGKDELKLTLSLLSIRYYEKMSFTKRPLPESK |
| binds | – | His-GID1a recombinant protein (GA-… DWARF1a) (receptor, Arabidopsis, UniProt Q9MAA7 1-345, looked up) MAASDEVNLIESRTVVPLNTWVLISNFKVAYNILRRPDGTFNRHLAEYLDRKVTANANPVDGVFSFDVLIDRRINLLSRVYRPAYADQEQPPSILDLEKPVDGDIVPVILFFHGGSFAHSSANSAIYDTLCRRLVGLCKCVVVSVNYRRAPENPYPCAYDDGWIALNWVNSRSWLKSKKDSKVHIFLAGDSSGGNIAHNVALRAGESGIDVLGNILLNPMFGGNERTESEKSLDGKYFVTVRDRDWYWKAFLPEGEDREHPACNPFSPRGKSLEGVSFPKSLVVVAGLDLIRDWQLAYAEGLKKAGQEVKLMHLEKATVGFYLLPNNNHFHNVMDEISAFVNAEC |
